Measurements published in paper PMC11387253, “High sensitive aptasensing chronic myeloid leukemia on circular electrode-modified by single-walled carbon nanotube”.

B1: CD19 aptamer (ssDNA)
DNA: TGCGTGTGTAGTGTGTCTGTTCTCCTTTTTTTGGTTGCTGCTCTTAGGGATTTGGGCGG
modifications: 5' C6-COOH
B2: complementary aptamer (ssDNA)
DNA: ACGCACACATCACACAGACAAGAGGAAAAAAACCAACGACGAGAATCCCTAAACCCGCC
modifications: 5' C6-COOH

Experiments:
CD19 [1] = target: T1, CD19 (Homo sapiens, UniProt P15391 20-291); experiment: electrochemical (current-volt, SWCN-modified IDE); 10-100 nM CD19; LOD 10 nM; near saturation above 60 nM; Aptamer immobilized on APTMS-SWCN surface, PEG-COOH blocked; 30 min protein incubation; washes 10 mM PBS pH 7.4; room temperature; 0-2 V in 0.1 V steps; conditions: protein: recombinant
CD33 antigen = CD33 antigen (UniProt P20138 18-259); experiment: electrochemical (current-volt, SWCN-modified IDE); 100 nM CD33; Aptamer immobilized on APTMS-SWCN surface, PEG-COOH blocked; 30 min protein incubation; washes 10 mM PBS pH 7.4; room temperature; 0-2 V in 0.1 V steps
CD19 [2] = target: T1, CD19; experiment: electrochemical (current-volt, SWCN-modified IDE); 100 nM CD19; Aptamer immobilized on APTMS-SWCN surface, PEG-COOH blocked; 30 min protein incubation; washes 10 mM PBS pH 7.4; room temperature; 0-2 V in 0.1 V steps; conditions: protein: recombinant

T1 sequence (P15391 20-291): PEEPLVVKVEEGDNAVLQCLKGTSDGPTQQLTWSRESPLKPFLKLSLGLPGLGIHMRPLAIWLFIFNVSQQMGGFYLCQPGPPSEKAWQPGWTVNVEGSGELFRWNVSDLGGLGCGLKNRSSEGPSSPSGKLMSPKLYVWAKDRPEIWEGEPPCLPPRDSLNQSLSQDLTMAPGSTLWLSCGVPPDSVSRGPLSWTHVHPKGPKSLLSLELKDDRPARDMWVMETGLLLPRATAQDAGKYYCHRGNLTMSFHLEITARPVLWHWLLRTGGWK
Chain of CD33 antigen (P20138 18-259): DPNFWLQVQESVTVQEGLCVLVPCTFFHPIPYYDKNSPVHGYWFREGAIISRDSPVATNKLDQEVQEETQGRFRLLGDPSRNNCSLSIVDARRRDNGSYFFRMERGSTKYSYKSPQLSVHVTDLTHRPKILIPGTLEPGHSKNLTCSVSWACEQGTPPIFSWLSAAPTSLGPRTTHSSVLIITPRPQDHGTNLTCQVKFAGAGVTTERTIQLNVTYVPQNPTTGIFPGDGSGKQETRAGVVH

| Binder | binding result (CD19 [1]) | binding result (CD33 antigen) | binding result (CD19 [2]) |
| --- | --- | --- | --- |
| B1 | binds | no binding |  |
| B2 |  |  | no binding |
